The target in test [1] is T1, recombinant human GPC3 protein (human, UniProt P51654 25-563).
T1 construct: also called human GPC3 full-length protein; recombinant GPC3 protein
As to the kind of experiment: ELISA on coated recombinant human GPC3 protein, OD450 [panel Recombinant human GPC3 protein]. For orientation: In an ELISA, binding on a coated surface is turned into a signal by an enzyme label.

The target of test [2] is T1, recombinant human GPC3 protein. The experiment in a line: BLI (Octet), antibody on Protein A probe. How it is done: Using BLI technology (Octet), the antibody to be tested was captured on the Protein A probe. The binding capacity with human GPC3 protein (10 μg/ml as the initial concentration, 2-fold gradient, a total of 5 concentration points) was detected. The affinity constant KD was obtained according to the association and dissociation rates. The 49G8 humanized antibody binds to the recombinant GPC3 protein with high affinity. The affinity data is seen in Table 6.
A general note: In BLI a coated tip is dipped into the sample, and binding shifts an interference pattern.

The target in the next test is T2, human GPC3 on cells (human, UniProt P51654 25-563).
T2 construct: whole, on cells; One molecule is used for both CHO-hGPC3 transfectants and GPC3+ HepG2 cells; The assay field names the cell; also called CHO-hGPC3 (clone 2B10); CHO-human GPC3
As to the kind of experiment: flow cytometry on human GPC3-CHO stably-transfected cells, MFI. (In flow cytometry, cells or beads pass a laser one at a time.)

The target in test [3] is T3, recombinant cynomolgus monkey GPC3 full-length protein (cynomolgus monkey, UniProt A0A2K5VK50 24-558). The experiment in a line: ELISA on coated recombinant cynomolgus monkey GPC3 protein, OD450 [panel Recombinant cynomolgus monkey GPC3 protein].
The target in test [4] is T3, recombinant cynomolgus monkey GPC3 …. As to the kind of experiment: SPR (Biacore T200), antibody on Protein A chip, GPC3 as analyte. How it is done:
(§1) Humanized antibodies with higher affinity were selected and compared for binding to human and cynomolgus monkey GPC3. The humanized antibody h49G8VHv6VKv3 was captured by the Protein A chip (GE healthcare). The recombinant proteins of human and cynomolgus monkey GPC3 diluted in gradient (5 μg/ml as the initial concentration, 2-fold gradient, 5 concentration points in total) were flowed through the chip at a flow rate of 30 μL/min, with a binding time of 150 seconds and dissociation time of 600 seconds. The kinetic constant was fitted using Biacore T200 evaluation software with a Langmuir 1:1 kinetics model. The humanized antibody h49G8VHv6VKv3 binds to human and cynomolgus monkey GPC3 with high affinity. […] The affinity data is seen in Table 7.

For test [5], the target named is T1, recombinant human GPC3 protein. Described as above. How it is done: as §1
Test [6] deals with T4, human CD3εγ-Fc heterodimer (human).
T4 construct: also called human CD3 εγ protein; recombinant CD3 εγ protein
T4 chain 1: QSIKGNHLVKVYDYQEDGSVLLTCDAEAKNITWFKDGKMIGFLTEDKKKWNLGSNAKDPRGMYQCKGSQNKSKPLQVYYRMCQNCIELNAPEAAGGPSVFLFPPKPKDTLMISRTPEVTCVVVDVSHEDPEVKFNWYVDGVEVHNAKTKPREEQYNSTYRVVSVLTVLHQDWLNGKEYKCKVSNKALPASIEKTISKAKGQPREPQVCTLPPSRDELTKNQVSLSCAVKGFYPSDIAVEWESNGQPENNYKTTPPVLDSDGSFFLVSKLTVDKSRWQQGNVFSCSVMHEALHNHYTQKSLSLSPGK
T4 chain 2: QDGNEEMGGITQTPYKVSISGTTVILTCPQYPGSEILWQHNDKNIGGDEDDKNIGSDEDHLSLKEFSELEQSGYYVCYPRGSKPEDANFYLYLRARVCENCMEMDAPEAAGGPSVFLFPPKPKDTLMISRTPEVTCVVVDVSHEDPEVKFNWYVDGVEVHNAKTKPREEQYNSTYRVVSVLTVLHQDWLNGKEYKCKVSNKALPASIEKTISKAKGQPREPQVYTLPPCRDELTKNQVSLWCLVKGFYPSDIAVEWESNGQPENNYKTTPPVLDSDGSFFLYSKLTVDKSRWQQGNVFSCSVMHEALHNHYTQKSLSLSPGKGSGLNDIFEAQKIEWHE
As to the kind of experiment: ELISA, coated human CD3εγ protein. How it is done: Human CD3 εγ protein was coated overnight at 4° C. After blocking with 2% skim milk, different dilutions of CD3 antibodies was added to each well and incubated for 1 hour. The secondary antibody HPR-labeled goat anti-human IgG Fc was added. After being developed by the TMB solution, the reaction was stopped with the concentrated sulfuric acid, and the absorbance was read at 450 nm (the results are shown in FIG. 12 and Table 8).

In another test the target is T5, human CD3 on T cells (human, UniProt P07766 23-207).
T5 construct: whole, on cells; The target is the native CD3 complex on cells; The recombinant antigen used elsewhere is the εγ heterodimer; also called CD3 on Jurkat cells; CD3 on human peripheral blood CD4+ and CD8+ T cells
The experiment in a line: flow cytometry, Jurkat cells. How it is done:
Jurkat cells in the logarithmic growth phase were taken, blocked with 3% BSA for 30 min, and added to 96-well U-plate at 5×10⁴ cells per well. The supernatant was discarded after centrifugation. 50 μL of gradient diluted antibody was added (antibody concentration: from 30 ng/mL, 3-fold dilution for 5 gradients) per well, and incubated at 4° C. for 1 hour. […] After washing, 50 μL PBS was added per well to perform resuspending for FACS (iQue, intellicyt) assay (the results are seen in FIG. 13, and Table 10).

B1: h49G8VHv6VKv2 (antibody, V domains shown)
VH: QVQLVQSGAEVKKPGSSVKVSCKASGYTFADYEIHWVRQAPGQGLEWMGAIHPGSGGTAYAQKFQGRVTLTADESSTTAYMELSSLRSEDTAVYYCTRYYSFAYWGQGTLVTVSS
VL: DVVMTQSPLSLPVTPGEPASISCRSSQSIVHSNYNTYLEWYLQKPGQSPQLLIYKVSNRFSGVPDRFSGSGSGTDFTLKISRVEAEDVGVYFCLQVTHVPLTFGQGTKLEIK
notes: Humanized 49G8; The name is read as h49G8VHv6 plus h49G8VKv2
Regarding B1, the EC50 (read off the curve) – broadly, the concentration needed to bring the measured effect to its halfway point – in test [1] was roughly 0.03 nM; with human GPC3 on cells it was roughly 2 nM; in test [3] it was roughly 0.03 nM. Moreover, the Kd (commonly the free concentration of one partner at which half of the binding sites on the other are occupied at equilibrium, for simple one-to-one binding) in test [2] worked out at 2 nM. In addition, the koff (usually a measure of how fast the partners let go of each other) in test [2] was determined as 0.000187 s⁻¹. For the same molecule, the kon (in general, the rate constant with which the complex forms) in test [2] was 93600 M⁻¹ s⁻¹.

B2: h49G8VHv6VKv4 (antibody, V domains shown)
VH: QVQLVQSGAEVKKPGSSVKVSCKASGYTFADYEIHWVRQAPGQGLEWMGAIHPGSGGTAYAQKFQGRVTLTADESSTTAYMELSSLRSEDTAVYYCTRYYSFAYWGQGTLVTVSS
VL: DVVMTQSPLSLPVTPGEPASISCRSSQSIVHSNSNTYLEWYLQKPGQSPQLLIYKVSNRFSGVPDRFSGSGSGTDFTLKISRVEAEDVGVYFCLQVTHVPLTFGQGTKLEIK
notes: Humanized 49G8
In the case of B2, the “EC50 (read off the curve)” value in test [1] was roughly 0.03 nM. Moreover, in test [2], the Kd worked out at 2.28 nM, the koff was 0.000205 s⁻¹ and the kon is 89900 M⁻¹ s⁻¹. For the same molecule, in the test with human GPC3 on cells, the “EC50 (read off the curve)” value was roughly 2 nM. For the same molecule, the “EC50 (read off the curve)” value in test [3] was roughly 0.03 nM.

B3: h49G8VHv6VKv5 (antibody, V domains shown)
VH: QVQLVQSGAEVKKPGSSVKVSCKASGYTFADYEIHWVRQAPGQGLEWMGAIHPGSGGTAYAQKFQGRVTLTADESSTTAYMELSSLRSEDTAVYYCTRYYSFAYWGQGTLVTVSS
VL: DVVMTQSPLSLPVTPGEPASISCRSSQSIVHSNTNTYLEWYLQKPGQSPQLLIYKVSNRFSGVPDRFSGSGSGTDFTLKISRVEAEDVGVYFCLQVTHVPLTFGQGTKLEIK
notes: Humanized 49G8
B3: the “EC50 (read off the curve)” value in test [1] was roughly 0.03 nM. In test [2], the Kd was 2.15 nM, the koff came to 0.000193 s⁻¹ and the kon stood at 90000 M⁻¹ s⁻¹. Moreover, in the test with human GPC3 on cells, the “EC50 (read off the curve)” value was roughly 2 nM. Besides, in test [3], the “EC50 (read off the curve)” value is roughly 0.03 nM.

B4: h49G8VHv6VKv3 (antibody, V domains shown)
VH: QVQLVQSGAEVKKPGSSVKVSCKASGYTFADYEIHWVRQAPGQGLEWMGAIHPGSGGTAYAQKFQGRVTLTADESSTTAYMELSSLRSEDTAVYYCTRYYSFAYWGQGTLVTVSS
VL: DVVMTQSPLSLPVTPGEPASISCRSSQSIVHSNGNTYLEWYLQKPGQSPQLLIYKVSNRFSGVPDRFSGSGSGTDFTLKISRVEAEDVGVYFCLQVTHVPLTFGQGTKLEIK
notes: Humanized 49G8
On to B4, for which the “EC50 (read off the curve)” value in test [1] is roughly 0.03 nM; in the test with human GPC3 on cells it was roughly 2 nM; in test [3] it was roughly 0.03 nM. Moreover, the values for the Kd in test [4], in test [5] and in test [2] were 2.1 nM, 1.39 nM and 1.42 nM, respectively. For the same molecule, the koff in test [4] came to 0.00025 s⁻¹; in test [5], 0.000351 s⁻¹; in test [2], 0.000134 s⁻¹. The kon in test [4] was found to be 119000 M⁻¹ s⁻¹; in test [5], 253000 M⁻¹ s⁻¹; in test [2] it was 94800 M⁻¹ s⁻¹.

B5: h49G8VHv6VKv6 (antibody, V domains shown)
VH: QVQLVQSGAEVKKPGSSVKVSCKASGYTFADYEIHWVRQAPGQGLEWMGAIHPGSGGTAYAQKFQGRVTLTADESSTTAYMELSSLRSEDTAVYYCTRYYSFAYWGQGTLVTVSS
VL: DVVMTQSPLSLPVTPGEPASISCRSSQSIVHSNANTYLEWYLQKPGQSPQLLIYKVSNRFSGVPDRFSGSGSGTDFTLKISRVEAEDVGVYFCLQVTHVPLTFGQGTKLEIK
notes: Humanized 49G8
Consider B5, for which the “EC50 (read off the curve)” value in test [1] was roughly 0.03 nM. Moreover, in test [2], the Kd was 2.38 nM, the koff turned out to be 0.00022 s⁻¹ and the kon came out at 92400 M⁻¹ s⁻¹. In addition, the “EC50 (read off the curve)” value with human GPC3 on cells is roughly 2 nM. Also, the “EC50 (read off the curve)” value in test [3] was roughly 0.03 nM.

B6: aCD3-hVH1/VL5 (antibody, V domains shown)
VH: EVQLVESGGGLVQPGGSLRLSCAASGFTFNTYAMNWVRQAPGKGLEWVSRIRSKYNNYATYYADSVKDRFTISRDDSKNTLYLQMNSLRAEDTAVYYCVRHGNFGNSYVSWFAYWGQGTLVTVSS
VL: QAVVTQEPSLTVSPGGTVTLTCRSSTGAVTTSNYANWVQEKPGQAPRGLIGGTNKRAPWTPARFSGSLLGGKAALTITGAQAEDEAEYYCVLWYSNLWVFGGGTKLTVL
notes: Humanized CD3 antibody with human IgG4 CH1-CH3 and a lambda light chain constant region
B6: the EC50 (as a rule, the concentration that produces a half-maximal response) in test [6] was 0.6 nM; with human CD3 on T cells it was 10 nM.

B7: aCD3-hVH9/VL1 (antibody, V domains shown)
VH: EVQLVESGGGLVQPGGSLRLSCAASGFTFNTYAMNWVRKAPGKGLEWVGRIRSKYNNYATYYADSVKDRFTISRDDSKNSLYLQMNSLKTEDTAVYYCVRHGNFGNSYVSWFAYWGQGTLVTVSS
VL: QAVVTQEPSLTVSPGGTVTLTCRSSTGAVTTSNYANWVQQKPGQAPRGLIGGTNKRAPWTPARFSGSLLGGKAALTLSGAQPEDEAEYYCALWYSNLWVFGGGTKLTVL
notes: Human IgG4, lambda
For B7, the EC50 in test [6] was 0.49 nM; with human CD3 on T cells, 7 nM.

B8: aCD3-hVH9/VL3 (antibody, V domains shown)
VH: EVQLVESGGGLVQPGGSLRLSCAASGFTFNTYAMNWVRKAPGKGLEWVGRIRSKYNNYATYYADSVKDRFTISRDDSKNSLYLQMNSLKTEDTAVYYCVRHGNFGNSYVSWFAYWGQGTLVTVSS
VL: EAVVTQEPSLTVSPGGTVTLTCESSDGAVTTSNYANWVQEKPGQAPRGLIGGTNKEAPWTPARFSGSLLGGKAALTLSGAQPEDEAEYYCALWYSNLWVFGGGTKLTVL
notes: Human IgG4, lambda
B8 showed an EC50 in test [6] of 0.7 nM.

B9: aCD3-hVH8/VL1 (antibody, V domains shown)
VH: EVQLVESGGGLVQPGGSLRLSCAASGFTFNTYAMNWVRKAPGKGLEWVGRIRSKYNNYATYYADSVKDRFTISRDDSKNSLYLQMNSLKTEDTAVYYCARHGNFGNSYVSWFAYWGQGTLVTVSS
VL: QAVVTQEPSLTVSPGGTVTLTCRSSTGAVTTSNYANWVQQKPGQAPRGLIGGTNKRAPWTPARFSGSLLGGKAALTLSGAQPEDEAEYYCALWYSNLWVFGGGTKLTVL
notes: Human IgG4, lambda
As to B9, the EC50 came out at 0.65 nM in test [6] and 15 nM in the test with human CD3 on T cells.

B10: aCD3-hVH8/VL5 (antibody, V domains shown)
VH: EVQLVESGGGLVQPGGSLRLSCAASGFTFNTYAMNWVRKAPGKGLEWVGRIRSKYNNYATYYADSVKDRFTISRDDSKNSLYLQMNSLKTEDTAVYYCARHGNFGNSYVSWFAYWGQGTLVTVSS
VL: QAVVTQEPSLTVSPGGTVTLTCRSSTGAVTTSNYANWVQEKPGQAPRGLIGGTNKRAPWTPARFSGSLLGGKAALTITGAQAEDEAEYYCVLWYSNLWVFGGGTKLTVL
notes: Human IgG4, lambda
Regarding B10, a half-maximal effect in test [6] (EC50) was put at 0.74 nM.

(Values after patent US20240043568A1 (KEYMED BIOSCIENCES, published 2024).)
